The source of these data is paper PMC6482001 (eLife, 2019).

The target in data set [1] is T1, GltTk (Thermococcus kodakarensis, UniProt Q5JID0).
T1 construct: gene TK0986; C-terminally His8-tagged (pBAD24-GltTk-His8), expressed in E. coli MC1061, purified in decylmaltoside-type detergent (DM) or reconstituted in proteoliposomes; homotrimer
Briefly: isothermal titration calorimetry. As to conditions: 300 mM NaCl, 100 mM KCl, pH 8.0, 25 °C, 0.15% DM; Na+-coupled binding; cited from earlier work. An excerpt:
(§1) isothermal titration calorimetry on GltTk

The target in data set [2] is glutamate transporter homolog GltTk from Thermococcus kodakarensis (Thermococcus kodakarensis) (UniProt Q5JID0). Briefly: crystal structure; GltTk with D-aspartate, 2.8 Å; hanging drop vapour diffusion at 5°C, 300 mM NaCl, 300 µM D-aspartate, protein 7 mg/ml in 10 mM Hepes KOH pH 8.0, 100 mM KCl, 0.15% DM; outward-oriented occluded state.
The target of data set [3] is T1, GltTk. Briefly: isothermal titration calorimetry. The format is binding.
Excerpt: as §1
In general terms: In ITC the heat of successive injections is recorded.

Substrate in data set [4]: N[C@@H](CC(=O)O)C(=O)O
Briefly: purified protein. The following applies: 100 mM NaCl outside, pH 7.5, 3 µM valinomycin, labelled compound.

Substrate in data set [5]: N[C@H](CC(=O)O)C(=O)O
The data set can be described thus: purified protein. As to conditions: 100 mM NaCl outside, pH 7.5, 3 µM valinomycin, labelled compound.

Like-named read-outs stand apart in the source and are kept apart here.

In general, Kd refers to a measure of binding affinity in units of concentration. `N[C@@H](CC(=O)O)C(=O)O` [L-aspartate]: in data set [1], the Kd was 120 ± 40 nM. A word on the stoichiometry N: it is the number of molecules, sites or subunits per partner or assembly. “glutamate transporter homolog GltTk from Thermococcus kodakarensis (from UniProt Q5JID0 1-430) (natural protein)” had a stoichiometry N in data set [2] of 3. `N[C@H](CC(=O)O)C(=O)O` [D-aspartate] returned a Kd in data set [3] of 470 ± 170 nM.

B1: GltTk (Thermococcus kodakarensis KOD1) (protein)
chain: MGKSLLRRYLDYPVLWKILWGLVLGAVFGLIAGHFGYAGAVKTYIKPFGDLFVRLLKMLVMPIVLASLVVGAASISPARLGRVGVKIVVYYLATSAMAVFFGLIVGRLFNVGANVNLGSGTGKAIEAQPPSLVQTLLNIVPTNPFASLAKGEVLPVIFFAIILGIAITYLMNRNEERVRKSAETLLRVFDGLAEAMYLIVGGVMQYAPIGVFALIAYVMAEQGVRVVGPLAKVVGAVYTGLFLQIVITYFILLKVFGIDPIKFIRKAKDAMITAFVTRSSSGTLPVTMRVAEEEMGVDKGIFSFTLPLGATINMDGTALYQGVTVLFVANAIGHPLTLGQQLVVVLTAVLASIGTAGVPGAGAIMLAMVLQSVGLDLTPGSPVALAYAMILGIDAILDMGRTMVNVTGDLAGTVIVAKTEKELDESKWIS
The Km is the substrate concentration at which the rate is half of its maximum. Take B1: the Km came to 0.75 ± 0.17 µM in data set [4] and 1.1 ± 0.11 µM in data set [5].
